Experimental data from patent publication US20160348147.

How the values were obtained:
[1] = target: T1, MSKGPGWGVG(VPGVG)60GDGQVPMSMRGGDDEGQQDDEE(VPGAGVPGGG)30YG fusion polypeptide
T1 chain: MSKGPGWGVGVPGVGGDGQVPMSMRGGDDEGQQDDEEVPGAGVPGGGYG

[2] = target: T2, A4 construct M(YPSDGRGQ)40YGDGQVPMSMRGGDEGQQDDEEGY
T2 chain: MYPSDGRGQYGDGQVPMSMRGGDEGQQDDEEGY

[3] = target: T3, ELP-substrate fusion M(GVGVP)60GDGQVPMSMRGGDDEGQQDDEEGY
T3 chain: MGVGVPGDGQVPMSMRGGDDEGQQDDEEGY

B1: Human MMP-1 catalytic domain (recombinant, produced in E. coli, 19.9 kDa) (protein)
chain: FVLTEGNPRWEQTHLTYRIENYTPDLPRADVDHAIEKAFQLWSNVTPLTFTKVSEGQADIMISFVRGDHRDNSPFDGPGGNLAHAFQPGPGIGGDAHFDEDERWTNNFREYNLHRVAAHELGHSLGLSHSTDIGALMYPSYTFSGDVQLAQDDIDGIQAIYGRSQNPVQP
For B1, which “optical density versus temperature before and after incubation with MMP-1” value [1] is on record?
Its value is “Incubation of these micelles with MMP-1 enzyme is shown to result in drastic changes in optical densities at the micelle-forming transition temperature”.

And the “transition temperature of 25 µM A4 before and after incubation with 25 ng/mL MMP-1 at 37 C” value [2]?
The value was “a change in transition temperature of A4 construct at 25 µM prior to (solid line) and after (dashed line) incubation with 25 ng/mL of MMP-1 enzyme”.

And the “catalytic constant (kcat) from Lineweaver-Burke plot, SDS-PAGE densitometry, 20 ng/mL enzyme, 40 C” value [3]?
The value was 8.0 ± 1.9 s⁻¹.

And the “mass spectrometry of the polypeptide before and after incubation with 100 ng/mL MMP-1 for 2 h at 25 C” value [3]?
The value was “most of the 1.8 kDa MMP-sensitive peptide is cleaved off the 25.4 kDa ELP”.

What about the “optical density at 350 nm and DLS particle size after 12 h with 100 ng/mL MMP-1 at 40 C” value [3] of the same protein?
The value was “the optical density of the solution shows a dramatic increase as the solution is heated above the CMT to 45 °C”.
